Read-outs that look alike come from different tables or passages of the source.

Data on three sequences can be found in patent publication US20180016581.

The target of data set [1] is GDF8 (myostatin), mature (Homo sapiens) (UniProt O14793). The following applies: TrpdU at each W (n in listing).
In data set [2] the target is T1, GDF11, mature (Homo sapiens) (UniProt O95390).
T1 sequence: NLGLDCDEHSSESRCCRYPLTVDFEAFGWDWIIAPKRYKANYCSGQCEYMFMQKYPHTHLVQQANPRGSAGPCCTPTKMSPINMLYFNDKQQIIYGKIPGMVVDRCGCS
The conditions noted are these: TrpdU at each W (n in listing).

Sequence of GDF8 (myostatin), mature (Homo sapiens) (O14793 267-375): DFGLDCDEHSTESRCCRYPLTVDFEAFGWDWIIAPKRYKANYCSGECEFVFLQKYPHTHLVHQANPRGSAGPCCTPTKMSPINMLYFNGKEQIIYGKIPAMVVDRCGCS

On to “CTCTGAACTTCTAATGTCTCTTGCATTTTATCGCATTGATTTCTCCAACA [14583-19_3]”, for which the Kd (usually the free concentration of one partner at which half of the binding sites on the other are occupied at equilibrium, for simple one-to-one binding) in data set [1] (with Z-block) stood at 1.16 nM; in data set [2] (with Z-block), 0.42 nM. On to “CTCTGATACGGCCTTAGTGTTAGAGTCCTTTATGAGTCTAGACCACAACA [14583-49_3]”, for which the Kd in data set [1] (0.1 uM Z-block, 1.32E-10 M in p223) was 0.13 nM; in data set [2] (0.1 uM Z-block, low binding plateau) it was 1.11 nM.

In data set [1] (with Z-block), TGTTAGAGTCCTTTATGAGTCTAG [14583-49_29] had a Kd of 0.228 nM.
